# Results: patent US20060177932A1 (published 2006)
# Molecular target: the molecule itself
# Experiment: not described (homodimerisation stated in Example 7)
protein,measurement,value
"STAT5A 1*7 (other, Expressed from the retrovirus vector GCsam-IRES-EGFP; also called STAT5 1*7; active STAT5 variant) MAGWIQAQQLQGDALRQMQVLYGQHFPIEVRHYLAQWIESQPWDAIDLDNPQDRGQATQLLEGLVQELQKKAEHQVGEDGFLLKIKLGHYATQLQNTYDRCPMELVRCIRHILYNEQRLVREANNCSSPAGVLVDAMSQKHLQINQRFEGLRLITQDTENELKKLQQTQEYFIIQYQESLRIQAQFAQLGQLNPQERMSRETALQQKQVSLETWLQREAQTLQQYRVELAEKHQKTLQLLRKQQTIILDDELIQWKRRQQLAGNGGPPEGSLDVLQSWCEKLAEIIWQNRQQIRRAEHLCQQLPIPGPVEEMLAEVNATITDIISALVTSTFIIEKQPPQVLKTQTKFAATVRLLVGGKLNVHMNPPQVKATIISEQQAKSLLKNENTRNECSGEILNNCCVMEYHQATGTLSAHFRNMSLKRIKRADRRGAESVTEEKFTVLFESQFSVGSNELVFQVKTLSLPVVVIVHGSQDHNATATVLWDNAFAEPGRVPFAVPDKVLWPQLCEALNMKFKAEVQSNRGLTKENLVFLAQKLFNISSNHLEDYNSMSVSWSQFNRENLPGWNYTFWQWFDGVMEVLKKHHKPHWNDGAILGFVNKQQAHDLLINKPDGTFLLRFSDSEIGGITIAWKFDSPDRNLWNLKPFTTRDFSIRSLADRLGDLNYLIYVFPDRPKDEVFAKYYTPVLAKAVDGYVKPQIKQVVPEFVNAFTDAGASATYMDQAPSPVVCPQPHYNMYPPNPDPVLDQDGEFDLDESMDVARHVEELLRRPMDSLDARLSPPAGLFTSARSSLS",binding result,binds
